Data from doi:10.1101/049148.

Tests used:
[1] = target: Heh2-VN (budding yeast (endogenously tagged)) (UniProt Q03281); test: split reporter
[2] = target: Heh1-VN (budding yeast (endogenously tagged)) (UniProt Q03707); test: split reporter
UniProt Q03707, sequence (Q03707 whole entry): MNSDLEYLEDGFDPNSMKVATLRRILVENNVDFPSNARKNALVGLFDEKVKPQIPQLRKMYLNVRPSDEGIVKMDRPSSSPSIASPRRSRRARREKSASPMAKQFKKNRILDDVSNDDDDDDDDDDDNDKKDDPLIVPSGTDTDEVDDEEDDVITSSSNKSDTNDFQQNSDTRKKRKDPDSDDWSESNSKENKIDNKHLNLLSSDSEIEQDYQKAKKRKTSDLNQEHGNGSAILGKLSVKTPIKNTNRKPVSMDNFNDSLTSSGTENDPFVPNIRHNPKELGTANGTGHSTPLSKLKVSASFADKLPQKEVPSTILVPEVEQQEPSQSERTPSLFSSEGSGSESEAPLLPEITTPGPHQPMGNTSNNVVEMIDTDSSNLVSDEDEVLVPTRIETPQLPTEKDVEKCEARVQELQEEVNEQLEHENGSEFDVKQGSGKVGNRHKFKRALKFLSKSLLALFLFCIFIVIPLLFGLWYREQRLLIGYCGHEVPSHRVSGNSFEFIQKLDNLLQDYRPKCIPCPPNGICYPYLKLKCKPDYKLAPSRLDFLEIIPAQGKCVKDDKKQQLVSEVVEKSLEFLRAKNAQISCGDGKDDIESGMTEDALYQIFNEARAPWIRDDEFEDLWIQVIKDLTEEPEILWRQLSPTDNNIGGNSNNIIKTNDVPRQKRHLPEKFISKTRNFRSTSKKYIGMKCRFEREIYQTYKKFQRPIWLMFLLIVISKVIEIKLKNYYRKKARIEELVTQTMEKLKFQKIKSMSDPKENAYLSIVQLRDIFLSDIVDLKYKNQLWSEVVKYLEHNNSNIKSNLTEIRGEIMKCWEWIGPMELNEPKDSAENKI

UniProt Q03281, sequence (Q03281 whole entry): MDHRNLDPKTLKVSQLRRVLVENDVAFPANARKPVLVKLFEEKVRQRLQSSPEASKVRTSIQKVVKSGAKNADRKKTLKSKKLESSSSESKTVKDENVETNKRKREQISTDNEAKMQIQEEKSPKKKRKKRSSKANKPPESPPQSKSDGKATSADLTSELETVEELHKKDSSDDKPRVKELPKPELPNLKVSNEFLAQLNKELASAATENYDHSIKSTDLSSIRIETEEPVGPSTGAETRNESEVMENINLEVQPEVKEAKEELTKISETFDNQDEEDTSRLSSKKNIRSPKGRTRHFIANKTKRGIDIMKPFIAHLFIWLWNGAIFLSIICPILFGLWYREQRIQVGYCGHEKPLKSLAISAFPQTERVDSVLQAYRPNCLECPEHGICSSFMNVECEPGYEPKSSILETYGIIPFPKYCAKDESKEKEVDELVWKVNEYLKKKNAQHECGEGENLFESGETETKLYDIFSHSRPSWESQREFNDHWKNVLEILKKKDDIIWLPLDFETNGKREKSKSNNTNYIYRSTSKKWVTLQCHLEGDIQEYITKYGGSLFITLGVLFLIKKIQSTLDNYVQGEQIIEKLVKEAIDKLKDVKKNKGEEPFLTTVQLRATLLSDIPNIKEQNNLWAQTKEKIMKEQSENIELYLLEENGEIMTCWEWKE

percent of cells with a BiFC focus [1]: 3%
percent of cells with a BiFC focus [2]: 28%
Substance: Chm7-VC (natural protein)
